Data from PMC11601812.

Legend:
[1] = molecular target: progesterone receptor isoform A (PR-A), full-length, Strep II tagged (human) (UniProt P06401); test: SEC-MALS; R5020-bound PR-A, SRC3 and p300 mixed with PRE DNA; Superose 6 Increase; 20 mM Hepes, 50 mM NaCl, 5% glycerol, 1 mM TCEP, with or without 1 M urea, pH 7.5
[2] = molecular target: steroid receptor coactivator 3 (SRC3), full-length, Strep II tagged (human) (UniProt Q9Y6Q9); test: as above
steroid receptor coactivator 3 (SRC3), full-length, Strep II tagged (human), sequence (Q9Y6Q9 whole entry): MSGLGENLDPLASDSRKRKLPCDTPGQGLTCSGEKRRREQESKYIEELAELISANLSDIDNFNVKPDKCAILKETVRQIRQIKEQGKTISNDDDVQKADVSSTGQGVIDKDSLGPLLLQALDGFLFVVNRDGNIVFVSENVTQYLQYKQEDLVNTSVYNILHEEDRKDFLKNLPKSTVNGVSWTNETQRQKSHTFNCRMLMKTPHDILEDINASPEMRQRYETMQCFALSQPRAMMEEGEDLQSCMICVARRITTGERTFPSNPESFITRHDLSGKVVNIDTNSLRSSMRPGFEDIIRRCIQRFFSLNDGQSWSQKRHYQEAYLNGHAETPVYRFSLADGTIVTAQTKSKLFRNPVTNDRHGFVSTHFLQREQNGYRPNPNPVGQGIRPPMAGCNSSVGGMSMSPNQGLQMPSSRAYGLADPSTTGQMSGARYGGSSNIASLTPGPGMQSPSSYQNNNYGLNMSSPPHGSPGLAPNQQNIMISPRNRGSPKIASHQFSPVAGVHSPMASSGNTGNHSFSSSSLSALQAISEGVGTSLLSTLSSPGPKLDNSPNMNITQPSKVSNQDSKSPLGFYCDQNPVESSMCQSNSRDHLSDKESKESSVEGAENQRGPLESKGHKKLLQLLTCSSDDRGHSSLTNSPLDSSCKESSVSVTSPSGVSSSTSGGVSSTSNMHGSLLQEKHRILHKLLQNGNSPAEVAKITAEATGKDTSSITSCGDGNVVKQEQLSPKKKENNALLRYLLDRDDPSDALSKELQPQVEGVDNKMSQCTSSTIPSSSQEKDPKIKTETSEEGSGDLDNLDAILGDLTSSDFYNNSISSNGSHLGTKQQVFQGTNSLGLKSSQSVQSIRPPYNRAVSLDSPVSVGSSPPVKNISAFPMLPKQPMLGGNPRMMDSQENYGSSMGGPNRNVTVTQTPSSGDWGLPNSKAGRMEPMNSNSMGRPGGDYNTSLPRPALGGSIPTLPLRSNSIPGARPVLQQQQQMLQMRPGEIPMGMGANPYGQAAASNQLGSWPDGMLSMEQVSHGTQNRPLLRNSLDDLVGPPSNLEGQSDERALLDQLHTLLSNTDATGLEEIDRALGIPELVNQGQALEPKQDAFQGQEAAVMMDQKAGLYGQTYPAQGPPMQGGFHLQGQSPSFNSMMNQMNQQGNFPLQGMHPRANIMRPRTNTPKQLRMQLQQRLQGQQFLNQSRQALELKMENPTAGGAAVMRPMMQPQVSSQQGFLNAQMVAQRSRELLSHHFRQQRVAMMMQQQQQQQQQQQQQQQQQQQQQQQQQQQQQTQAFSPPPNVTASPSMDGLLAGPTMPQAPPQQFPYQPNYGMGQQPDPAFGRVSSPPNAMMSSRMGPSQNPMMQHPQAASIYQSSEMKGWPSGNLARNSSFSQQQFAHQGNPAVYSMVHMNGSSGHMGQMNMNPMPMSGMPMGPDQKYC

progesterone receptor isoform A (PR-A), full-length, Strep II tagged (human), sequence (P06401 165-933): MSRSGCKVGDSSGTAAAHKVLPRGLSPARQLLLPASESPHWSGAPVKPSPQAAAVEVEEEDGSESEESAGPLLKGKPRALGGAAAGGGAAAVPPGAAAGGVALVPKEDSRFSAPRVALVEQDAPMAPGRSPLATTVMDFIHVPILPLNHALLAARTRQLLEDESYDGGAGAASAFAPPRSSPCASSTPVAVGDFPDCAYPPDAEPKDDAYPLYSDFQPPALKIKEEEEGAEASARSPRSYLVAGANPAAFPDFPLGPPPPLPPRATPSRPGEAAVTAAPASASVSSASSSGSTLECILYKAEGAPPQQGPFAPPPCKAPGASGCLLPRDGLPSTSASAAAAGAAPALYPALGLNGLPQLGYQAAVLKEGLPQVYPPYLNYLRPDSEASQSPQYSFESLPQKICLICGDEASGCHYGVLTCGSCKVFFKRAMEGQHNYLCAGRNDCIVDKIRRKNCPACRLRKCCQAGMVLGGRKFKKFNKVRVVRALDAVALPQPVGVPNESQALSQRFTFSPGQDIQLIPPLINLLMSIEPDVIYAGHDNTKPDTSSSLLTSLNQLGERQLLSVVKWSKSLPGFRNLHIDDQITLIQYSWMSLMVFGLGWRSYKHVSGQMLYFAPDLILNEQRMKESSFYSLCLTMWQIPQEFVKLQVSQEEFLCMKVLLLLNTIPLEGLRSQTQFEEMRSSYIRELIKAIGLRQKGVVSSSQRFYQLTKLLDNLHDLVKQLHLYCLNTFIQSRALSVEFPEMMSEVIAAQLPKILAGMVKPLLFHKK

“histone acetyltransferase p300, full-length, Strep II tagged, Q09472 1-2414” gave a stoichiometry N [1] of 0.5 and a stoichiometry N [2] of 1.
